# According to the supplement of paper PMC10065799, “High-throughput profiling of sequence recognition by tyrosine kinases and SH2 domains using bacterial peptide display” (eLife, 2023):
# Biological target: Fes (UniProt P07332)
# Experiment: phosphorylation enrichment, bacterial display (enrichment ratio); higher = better substrate or ligand; peptides without Tyr show the background
# 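Note: 11-residue human phosphosite peptides and single-mutation variants displayed on the E. coli surface, counted by deep sequencing, each peptide's frequency after selection divided by its frequency in the unselected input library; frequency after pTyr selection over input frequency; kinase dosed for 20-30% of maximal phosphorylation in three min.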
# Chain of Fes (P07332 whole entry, looked up): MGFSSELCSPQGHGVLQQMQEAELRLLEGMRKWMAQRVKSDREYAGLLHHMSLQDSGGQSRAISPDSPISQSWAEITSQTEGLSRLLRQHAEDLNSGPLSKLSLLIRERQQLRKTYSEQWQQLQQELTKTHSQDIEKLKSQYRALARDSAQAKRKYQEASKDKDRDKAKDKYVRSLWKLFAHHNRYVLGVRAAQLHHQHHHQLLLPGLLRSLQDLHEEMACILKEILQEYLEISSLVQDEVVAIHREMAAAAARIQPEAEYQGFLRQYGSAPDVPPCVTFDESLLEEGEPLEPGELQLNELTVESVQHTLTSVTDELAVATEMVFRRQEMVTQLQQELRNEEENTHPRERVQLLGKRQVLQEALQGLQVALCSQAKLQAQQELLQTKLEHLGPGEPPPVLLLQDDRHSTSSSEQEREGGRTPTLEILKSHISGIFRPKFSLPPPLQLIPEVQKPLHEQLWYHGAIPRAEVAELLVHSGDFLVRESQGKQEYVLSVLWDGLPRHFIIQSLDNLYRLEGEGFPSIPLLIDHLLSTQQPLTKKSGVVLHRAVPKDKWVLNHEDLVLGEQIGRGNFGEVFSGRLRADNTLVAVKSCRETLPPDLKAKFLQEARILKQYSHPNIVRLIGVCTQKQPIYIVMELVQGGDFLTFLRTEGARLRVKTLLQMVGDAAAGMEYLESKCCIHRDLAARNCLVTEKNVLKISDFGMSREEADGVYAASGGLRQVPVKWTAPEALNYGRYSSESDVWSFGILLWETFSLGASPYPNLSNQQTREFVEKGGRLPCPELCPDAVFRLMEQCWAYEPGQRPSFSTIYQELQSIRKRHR
row,Sequence,phosphorylation enrichment
1,EQRRAYLEGTC [HLA-C_Y183_L180R],1.01
2,DSDTDYGSGFP [RNASEH2A_Y206_L202S_YF],1.01
3,LVRPPYSFLAL [FOXI1_Y126_S129L_YF],0.787
4,MMVGAYSSLEG [ECPAS_Y470_T472S],0.754
5,KRAAIYNPVIF [RHO_Y301_S297R_YF],0.841
6,LHAAAYRNALA [UQCRC2_Y182],0.871
7,AALLNYKAGRD [GRIN2A_Y737_V734L],0.687
8,SHPSSYTTHPQ [NIPBL_Y195],0.82
9,LTGIAYSLPHW [SLC22A14_Y291],1.68
10,SLFNGYVFSGM [NEIL3_Y71_V76M_YF],1.07
11,LNEVGYDDIGG [VCP_Y203],2.47
12,PEADKYRLPFA [FGG_Y300_T303P_YF],0.717
13,HSDYQYGQRSQ [PKP2_Y168_S169G],0.44
14,QMQAAYQKVVA [HBD_Y131],0.578
15,VDSAHYQLLET [DTX3L_Y385_K386Q],0.909
16,LRAGVYREKDQ [DNM2_Y626_P627R],0.636
17,LRVHSYKSMQP [DRC7_Y516],0.769
18,RQEEEYKRFSE [SFSWAP_Y133_L136F],1.95
19,RNYDTYTAGLS [RHBDD1_Y264],0.901
20,TVLEPYTDPYY [ZC3H18_Y367_A368T],0.857
21,FGFPGYQCKHF [TIMP3_Y177_S179C_YF],0.789
22,CTLLPYFSARV [DGKE_Y269_YF],1.11
23,VHLFAYDWISI [BEST1_Y227_G222V_YF],1.38
24,KELAKYFKLHH [AK7_Y390_N389K_YF],0.626
25,IGRHAYGDQYR [IDH1_Y135],0.599
26,GLAELYEYKKK [CKAP5_Y1854],0.719
27,NPQKSYFICLF [WAS_Y83_R86C_YF],1.27
28,PTTKTYFPHFG [HBA1_Y43_D48G],0.645
29,AHAGEYGAVAL [HBA1_Y25_E28V],0.594

# Biological target: Fyn (UniProt P06241)
# Experiment: as above
# Chain of Fyn (P06241 whole entry, looked up): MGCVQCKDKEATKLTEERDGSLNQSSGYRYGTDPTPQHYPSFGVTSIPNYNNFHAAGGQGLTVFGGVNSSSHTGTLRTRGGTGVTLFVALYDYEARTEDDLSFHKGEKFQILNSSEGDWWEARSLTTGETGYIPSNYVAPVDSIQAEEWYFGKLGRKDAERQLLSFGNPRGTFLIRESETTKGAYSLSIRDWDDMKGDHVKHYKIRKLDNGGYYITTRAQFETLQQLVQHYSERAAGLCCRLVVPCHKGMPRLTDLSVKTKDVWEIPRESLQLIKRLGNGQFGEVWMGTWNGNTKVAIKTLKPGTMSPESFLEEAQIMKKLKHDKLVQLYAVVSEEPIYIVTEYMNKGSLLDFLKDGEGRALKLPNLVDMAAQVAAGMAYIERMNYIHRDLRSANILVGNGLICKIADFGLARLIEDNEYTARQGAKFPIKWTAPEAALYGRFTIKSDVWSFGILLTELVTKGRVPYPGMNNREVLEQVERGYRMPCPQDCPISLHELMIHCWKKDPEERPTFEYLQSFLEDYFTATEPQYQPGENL
row,Sequence,phosphorylation enrichment
1,EQRRAYLEGTC [HLA-C_Y183_L180R],0.482
2,DSDTDYGSGFP [RNASEH2A_Y206_L202S_YF],0.429
3,LVRPPYSFLAL [FOXI1_Y126_S129L_YF],0.525
4,MMVGAYSSLEG [ECPAS_Y470_T472S],0.533
5,KRAAIYNPVIF [RHO_Y301_S297R_YF],1.91
6,LHAAAYRNALA [UQCRC2_Y182],0.55
7,AALLNYKAGRD [GRIN2A_Y737_V734L],0.494
8,SHPSSYTTHPQ [NIPBL_Y195],0.441
9,LTGIAYSLPHW [SLC22A14_Y291],0.921
10,SLFNGYVFSGM [NEIL3_Y71_V76M_YF],0.421
11,LNEVGYDDIGG [VCP_Y203],1.15
12,PEADKYRLPFA [FGG_Y300_T303P_YF],0.614
13,HSDYQYGQRSQ [PKP2_Y168_S169G],0.578
14,QMQAAYQKVVA [HBD_Y131],0.47
15,VDSAHYQLLET [DTX3L_Y385_K386Q],0.588
16,LRAGVYREKDQ [DNM2_Y626_P627R],0.35
17,LRVHSYKSMQP [DRC7_Y516],0.567
18,RQEEEYKRFSE [SFSWAP_Y133_L136F],0.602
19,RNYDTYTAGLS [RHBDD1_Y264],1.49
20,TVLEPYTDPYY [ZC3H18_Y367_A368T],0.656
21,FGFPGYQCKHF [TIMP3_Y177_S179C_YF],0.445
22,CTLLPYFSARV [DGKE_Y269_YF],0.453
23,VHLFAYDWISI [BEST1_Y227_G222V_YF],0.589
24,KELAKYFKLHH [AK7_Y390_N389K_YF],0.505
25,IGRHAYGDQYR [IDH1_Y135],0.371
26,GLAELYEYKKK [CKAP5_Y1854],0.569
27,NPQKSYFICLF [WAS_Y83_R86C_YF],0.39
28,PTTKTYFPHFG [HBA1_Y43_D48G],0.458
29,AHAGEYGAVAL [HBA1_Y25_E28V],5.54
